Experimental data as given in US20190211057A1 (NATIONAL YANG MING UNIVERSITY, published 2019).
One block for each binder: values may come before it. Ends that are not written are not given here.

Assays:
integrin αvβ3 receptor [1] = biological target: T1, integrin αvβ3 receptor (UniProt P06756 31-992; P05106 27-718); assay: ELISA on integrin αvβ3 receptor; paragraph 109 says yCD can not be bound before and after modification
T1 construct: also called αvβ3 integrin; αvβ3 integrin receptor

[2] = biological target: T2, integrin αvβ3 receptor on cells (HUVEC, U87MG, MCF-7, ES-2-luc) (human), P06756; assay: competitive cell uptake on HUVEC cells, cRGDfk at 1000-fold molar excess; labelled ^111In-DTPA-RGD4C-yCD; conditions: remark: other sources report otherwise
T2 chain 1: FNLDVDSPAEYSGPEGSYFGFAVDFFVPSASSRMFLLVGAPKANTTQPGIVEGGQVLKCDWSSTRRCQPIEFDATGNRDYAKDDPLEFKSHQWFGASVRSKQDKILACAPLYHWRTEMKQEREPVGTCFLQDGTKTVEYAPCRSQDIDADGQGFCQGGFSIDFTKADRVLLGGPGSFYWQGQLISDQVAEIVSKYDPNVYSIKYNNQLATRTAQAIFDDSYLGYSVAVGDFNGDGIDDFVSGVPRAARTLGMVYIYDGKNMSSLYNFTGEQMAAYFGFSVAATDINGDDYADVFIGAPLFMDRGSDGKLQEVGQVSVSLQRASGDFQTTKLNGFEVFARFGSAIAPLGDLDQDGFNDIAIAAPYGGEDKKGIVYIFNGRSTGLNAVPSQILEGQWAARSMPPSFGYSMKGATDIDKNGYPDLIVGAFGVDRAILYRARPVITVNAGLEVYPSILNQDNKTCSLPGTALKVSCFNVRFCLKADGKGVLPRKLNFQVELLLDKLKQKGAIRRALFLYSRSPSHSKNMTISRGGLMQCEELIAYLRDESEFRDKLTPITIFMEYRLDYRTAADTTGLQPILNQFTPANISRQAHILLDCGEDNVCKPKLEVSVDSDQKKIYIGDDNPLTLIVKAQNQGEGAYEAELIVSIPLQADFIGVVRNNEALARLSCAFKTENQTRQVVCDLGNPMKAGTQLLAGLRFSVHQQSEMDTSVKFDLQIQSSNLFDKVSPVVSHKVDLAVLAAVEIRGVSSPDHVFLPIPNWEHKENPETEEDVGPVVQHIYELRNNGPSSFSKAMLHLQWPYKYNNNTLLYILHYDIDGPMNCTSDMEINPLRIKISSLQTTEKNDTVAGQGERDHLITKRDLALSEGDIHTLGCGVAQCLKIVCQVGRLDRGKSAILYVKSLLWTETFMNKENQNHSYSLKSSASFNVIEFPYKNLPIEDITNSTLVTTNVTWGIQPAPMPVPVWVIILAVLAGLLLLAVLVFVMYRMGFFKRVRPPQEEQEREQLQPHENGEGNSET
T2 chain 2: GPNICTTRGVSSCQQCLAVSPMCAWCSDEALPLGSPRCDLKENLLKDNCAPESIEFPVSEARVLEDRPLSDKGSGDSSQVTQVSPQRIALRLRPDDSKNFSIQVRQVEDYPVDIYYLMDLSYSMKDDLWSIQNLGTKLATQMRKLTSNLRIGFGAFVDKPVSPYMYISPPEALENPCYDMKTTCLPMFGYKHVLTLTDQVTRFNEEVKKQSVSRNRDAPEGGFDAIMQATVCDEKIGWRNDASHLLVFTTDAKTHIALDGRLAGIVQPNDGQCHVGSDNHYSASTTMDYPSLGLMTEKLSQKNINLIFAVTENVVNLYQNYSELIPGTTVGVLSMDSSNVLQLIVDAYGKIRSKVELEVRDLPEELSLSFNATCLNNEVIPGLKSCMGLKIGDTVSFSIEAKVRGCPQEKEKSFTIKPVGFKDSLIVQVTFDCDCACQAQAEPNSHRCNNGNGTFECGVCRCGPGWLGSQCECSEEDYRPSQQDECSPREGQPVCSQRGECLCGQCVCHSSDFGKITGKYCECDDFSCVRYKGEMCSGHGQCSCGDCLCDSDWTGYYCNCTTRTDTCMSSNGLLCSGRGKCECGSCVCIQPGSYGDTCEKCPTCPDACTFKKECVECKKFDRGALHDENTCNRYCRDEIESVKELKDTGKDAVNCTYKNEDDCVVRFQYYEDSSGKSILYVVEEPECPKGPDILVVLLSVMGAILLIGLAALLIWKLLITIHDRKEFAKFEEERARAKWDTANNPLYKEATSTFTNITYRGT

[3] = biological target: T2, integrin αvβ3 receptor on cells (HUVEC, …); assay: competitive cell uptake on ES-2-luc cells, cRGDfk at 1000-fold molar excess; labelled competitor ^111In-DTPA-RGD4C-yCD; conditions: remark: other sources report otherwise
[4] = biological target: T2, integrin αvβ3 receptor on cells (HUVEC, …); assay: competitive cell uptake on MCF-7 cells (low αvβ3), cRGDfk at 1000-fold molar excess; labelled ^111In-DTPA-RGD4C-yCD; conditions: remark: other sources report otherwise
[5] = biological target: T3, integrin αvβ3 receptor on cells (HUVEC, U87MG, MCF-7, ES-2-luc) (human, UniProt P06756 31-1048; P05106 27-788); assay: cell-based or functional assay
[6] = biological target: T3, integrin αvβ3 receptor on cells (HUVEC, …); assay: cell ELISA on HUVEC cells, anti-His-HRP
From the text: (§1) After reacted with anti-His-HRP antibody and TMB substrate, ELISA reader (OD450 nm) is used to detect the amount of recombinant protein bound to the cells, and the binding curve is drawn. The nonlinear curve of the prism software is used to make a diagram and calculate the dissociation constant (Kd).
(§2) The anti-His6-Tag-HRP antibody and TMB show the color reagent to detect the amount of recombinant protein bound to the cell, then the dissociation constant Kd value of the recombinant protein and the integrin αᵥβ₃ receptor is calculated and a binding curve is drawn.

integrin αvβ3 receptor [7] = biological target: T1, integrin αvβ3 receptor; assay: ELISA on integrin αvβ3 receptor, one site-specific binding fit
From the text: The curve and receptor binding ability parameters (see FIG. 19 and Table 14) are fitted by the binding ability of DTPA-modified protein and integrin αᵥβ₃ receptor through the One site-Specific binding formula in the Graph prism program.

[8] = biological target: T3, integrin αvβ3 receptor on cells (HUVEC, …); assay: cell ELISA, U87MG against MCF-7
[9] = biological target: T3, integrin αvβ3 receptor on cells (HUVEC, …); assay: cell-based or functional assay; remark: listed apart in the source
[10] = biological target: T3, integrin αvβ3 receptor on cells (HUVEC, …); assay: cell ELISA, HUVEC against MCF-7
integrin αvβ3 receptor [11] = biological target: T1, integrin αvβ3 receptor; assay: ELISA on integrin αvβ3 receptor (repeats Table 14)
[12] = biological target: T3, integrin αvβ3 receptor on cells (HUVEC, …); assay: cell ELISA on U87MG cells (repeats Table 2)
[13] = biological target: T3, integrin αvβ3 receptor on cells (HUVEC, …); assay: cell ELISA on MCF-7 cells (repeats Table 2)
[14] = biological target: T3, integrin αvβ3 receptor on cells (HUVEC, …); assay: cell ELISA on HUVEC cells (repeats Table 2)
[15] = biological target: T3, integrin αvβ3 receptor on cells (HUVEC, …); assay: cell-based or functional assay; remark: listed apart in the source
[16] = biological target: T3, integrin αvβ3 receptor on cells (HUVEC, …); assay: cell ELISA on MCF-7 cells (low αvβ3 expression), anti-His-HRP
From the text: as §1, §2

[17] = biological target: T3, integrin αvβ3 receptor on cells (HUVEC, …); assay: cell ELISA on U87MG cells, anti-His-HRP
From the text: as §1, §2

integrin αvβ3 receptor [18] = biological target: T1, integrin αvβ3 receptor; assay: ELISA on integrin αvβ3 receptor, anti-His6-HRP detection, curve fit
From the text: The dissociation constant Kd is obtained by prism software with curve fitting method.

integrin αvβ3 receptor [19] = biological target: T1, integrin αvβ3 receptor; assay: ELISA on integrin αvβ3 receptor, after simulated labelling conditions
integrin αvβ3 receptor [20] = biological target: T1, integrin αvβ3 receptor; assay: ELISA on integrin αvβ3 receptor, after simulated labelling and challenge with 10-fold molar excess of EDTA

binding result (integrin αvβ3 receptor [1]): no binding
B1: DTPA-yCD (enzyme)
chain: MVVTGGMASKWDQKGMDIAYEEAALGYKEGGVPIGGCLINNKDGSVLGRGHNMRFQKGSATLHGEISTLENCGRLEGKVYKDTTLYTTLSPCDMCTGAIIMYGIPRCVVGENVNFKSKGEKYLQTRGHEVVVVDDERCKKIMKQFIDERPQDWFEDIGELEHHHHHH
modifications: DTPA on primary amines, 1.16 DTPA per protein on average

percent decrease of uptake [2]: 65% | percent decrease of uptake [3]: 70% | percent decrease of uptake [4]: 45%
B2: cRGDfk (peptide)
peptide: RGDFK
modifications: not fully specified (residues 4, 5); also: prefix c and lower-case f, k not explained

Kd [6]: 0.0475 µM | Kd (integrin αvβ3 receptor [7]): 0.0207 µM | fold cell binding ability against MCF-7 [8]: ~6.8 fold | fold cell binding ability against MCF-7 [10]: ~7.7 fold | Kd (integrin αvβ3 receptor [11]): 0.0207 µM | Kd [12]: 0.0537 µM | Kd [13]: 0.366 µM | Kd [14]: 0.0475 µM | Kd [16]: 0.366 µM | Kd [17]: 0.0537 µM | Kd (integrin αvβ3 receptor [18]): 0.0395 µM
B3: RGD4C-yCD (other)
chain: MACDCRGDCFCVTGGMASKWDQKGMDIAYEEAALGYKEGGVPIGGCLINNKDGSVLGRGHNMRFQKGSATLHGEISTLENCGRLEGKVYKDTTLYTTLSPCDMCTGAIIMYGIPRCVVGENVNFKSKGEKYLQTRGHEVVVVDDERCKKIMKQFIDERPQDWFEDIGELEHHHHHH
notes: Fusion of the RGD4C peptide with yeast cytosine deaminase, expressed from pET28a(+) in E. coli and detected by its His6 tag; also called RGD4C-yCD recombinant protein
protein reaction concentration IC50 of cytotoxic effect, MTT, HUVEC cells, 100 µM 5-FC [5]: 0.209 µM | protein reaction concentration IC50 of cytotoxic effect, MTT, U87MG cells, 100 µM 5-FC [5]: 0.177 µM | IC50 of 5-FC, MTT cytotoxicity, HUVEC cells incubated with 500 nM protein then washed (repeats Table 3) [9]: 23.6 µM | IC50 of 5-FC, MTT cytotoxicity, MCF-7 cells (low αvβ3) incubated with 500 nM protein then washed (repeats Table 3) [9]: 5130 µM | IC50 of 5-FC, MTT cytotoxicity, U87MG cells incubated with 500 nM protein then washed (repeats Table 3) [9]: 37.1 µM | IC50 of 5-FC, MTT cytotoxicity, HUVEC cells incubated with 500 nM protein then washed [15]: 23.6 µM | IC50 of 5-FC, MTT cytotoxicity, MCF-7 cells (low αvβ3) incubated with 500 nM protein then washed [15]: 5130 µM | IC50 of 5-FC, MTT cytotoxicity, U87MG cells incubated with 500 nM protein then washed [15]: 37.1 µM

Kd (integrin αvβ3 receptor [19]): 0.0254 µM | Kd (integrin αvβ3 receptor [20]): 0.0346 µM
B4: In-DTPA-RGD4C-yCD (other)
chain: MACDCRGDCFCVTGGMASKWDQKGMDIAYEEAALGYKEGGVPIGGCLINNKDGSVLGRGHNMRFQKGSATLHGEISTLENCGRLEGKVYKDTTLYTTLSPCDMCTGAIIMYGIPRCVVGENVNFKSKGEKYLQTRGHEVVVVDDERCKKIMKQFIDERPQDWFEDIGELEHHHHHH
modifications: DTPA on primary amines, loaded with the stable isotope of indium
notes: also called In-DTPA- RGD4C-yCD 10x EDTA
